Changes are numbered by the printed parent chain. Blank lines part the entries; values can stand above or below the binder they belong to.
What was measured:
[1] = biological target: T1, human PVRIG-mFc protein (Acro, PVG-H5253) (human, UniProt Q6DKI7 41-171, limits assumed); test: competition FACS; blocked: human PVRIG-mFc binding to CHO-K1-CD112 cells
T1 construct: bought reagent; also called PVRIG-ECD-mFc
T1 sequence (looked up): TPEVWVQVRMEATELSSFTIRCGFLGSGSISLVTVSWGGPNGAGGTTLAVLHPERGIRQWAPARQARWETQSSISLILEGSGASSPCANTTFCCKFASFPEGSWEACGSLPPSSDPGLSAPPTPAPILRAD
Method: After incubation, the cells were added with staining buffer (2% FBS+PBS) to stop staining, centrifuged at 350×g to remove the supernatant, washed twice and resuspended with staining buffer to a density of 1×10⁶ cells/mL. The cells were plated into a 96-well plate (50 μL of cell suspension per well) for further use. A working solution of human PVRIG-mFc protein (Acro, PVG-H5253) prepared with staining buffer, 1 μg/mL (four-fold concentration), was added into a 96-well plate (50 μL PVRIG-mFc working solution per well). […] The diluted antibodies were added to the well containing 50 μL of PVRIG-mFc. The plate was placed on a microplate shaker at 400 rpm for 1 minute to fully mix the antibodies and PVRIG-mFc proteins, and then incubated at 4° C. for 30 minutes. After the incubation, the cell suspension prepared above (100 μL) was added into the wells, gently mixed with the pipette tip and incubated at 4° C. for 30 minutes. After the incubation, the cells were washed twice with staining buffer (200 μL per well) and centrifuged at 350×g for 5 minutes to discard the supernatant. The PE goat anti-mouse IgG Fc antibody (Biolegend, 405337) was diluted 250 times with staining buffer, added into the washed wells (100 μL per well), mixed well, and stained at 4° C. for 30 minutes. After staining, the cells were washed twice with staining buffer, finally resuspended with 200 μL staining buffer and analyzed by flow cytometry (BD, Canto II). The weaker the fluorescence signal, the stronger the ability of the antibodies blocks the binding of CHO-K1 human CD112 cells to the PVRIG-mFc protein. An antibody binding curve was drawn with concentration of antibodies as the abscissa and the corresponding Mean Fluorescence Intensity (MFI) as the ordinate. The IC50 value of the antibodies and the AUC value of the binding curve were calculated by using a Four Parameter Logistic Fit (GraphPadPrism9). The smaller the IC50 value and AUC value, the stronger the ability of the antibodies competes with CHO-K1-CD112 cells to bind to human PVRIG-mFc protein.

[2] = biological target: T2, human PVRIG-his (AcroBiosystems, Cat NO. PVG-H52H4) (human, UniProt Q6DKI7 41-171, limits assumed); test: competition ELISA on coated human PVRIG-his; blocked ligand human PVRL2-mFc
T2 construct: treated as the same protein; also called human PVRIG-His protein; Human PVRIG-His, Acro C227P1-9ARF1-T4
T2 sequence (looked up): T1 sequence (looked up)
Method: (§1) The ELISA plate was pre-coated with 100 μL/well of 0.5 μg/mL human PVRIG-his protein (AcroBiosystems, Cat NO. PVG-H52H4). The tested anti-PVRIG antibodies were diluted from the highest concentration of 16 nM (two-fold concentration). The diluted antibodies were mixed with 18 ng/ml human PVRL2-mFc (AcroBiosystems, Cat NO. CD2-H5257) in equal volume, added into the plate (100 μL/well), and incubated with shaking at room temperature for 2.0 hours. […] A HRP substrate, TMB (Thermo, Cat NO. 34029) was added into wells after washing the plate again for color development. After adding a termination solution to terminate the reaction, the absorbance value was read by a microplate reader (MD i3×). An inhibiting curve was drawn with concentration of antibodies as the abscissa and the corresponding OD value as the ordinate. The IC50 value was calculated by using a Four Parameter Logistic Fit (GraphPadPrism9). The smaller the IC50 value, the stronger the ability of the antibodies inhibits the binding between PVRIG and PVRL2. The positive and negative controls are the same as in Example 8.

[3] = biological target: T3, human PVRIG-his (AcroBiosystems, Cat NO. PVG-H52H4) (human, UniProt Q6DKI7 41-171, limits assumed); test: ELISA, antigen coated
T3 construct: also called human PVRIG protein
T3 sequence (looked up): T1 sequence (looked up)
Method: (§2) The ELISA plate was pre-coated with 100 μL/well of 0.5 μg/mL human PVRIG-his (AcroBiosystems, Cat NO. PVG-H52H4) or cynomolgus monkey PVRIG (Novoprotein, Cat NO. C09B). The tested anti-PVRIG humanized antibodies were serially diluted (initial concentration 3 nM, 3-fold serial dilution), added into the plate (100 μL/well) and incubated with shaking at room temperature for 1.5 hours. […] A HRP substrate, TMB (Thermo, Cat NO. 34029) was added into wells after washing the plate again for color development. After adding a termination solution to terminate the reaction, the absorbance value was read by a microplate reader (MD i3×). An antibody binding curve was drawn with concentration of antibodies as the abscissa and the corresponding OD value as the ordinate. The EC50 value was calculated by using a Four Parameter Logistic Fit (GraphPadPrism9). The smaller the EC50 value, the stronger the ability of the antibodies binds to human or cynomolgus monkey PVRIG. The binding effect of the humanized antibodies was normalized to the corresponding parental antibodies. If the percentage value is higher than 100%, the binding effect of humanized antibodies is better than that of parental antibody.

[4] = biological target: T4, cynomolgus monkey PVRIG (Novoprotein, Cat NO. C09B) (cynomolgus monkey, UniProt A0A2K5WVV8 41-171); test: ELISA, antigen coated
T4 construct: also called cynomolgus monkey PVRIG protein
T4 sequence: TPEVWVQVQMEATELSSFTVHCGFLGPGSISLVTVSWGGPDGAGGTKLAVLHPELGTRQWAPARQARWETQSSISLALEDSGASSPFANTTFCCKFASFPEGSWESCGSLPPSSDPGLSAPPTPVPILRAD
Method: as §2

[5] = biological target: T3, human PVRIG-his (AcroBiosystems, Cat …); test: competition ELISA, PVRIG-His coated, competitor human PVRL2-mFc; parameters: AUC: unit not given here
Method: as §1
The methods refer to Example 11. The inhibiting activity of the humanized antibodies was normalized to the corresponding parental antibodies. If the percentage value is higher than 100%, the inhibiting effect of humanized antibodies is better than that of parental antibodies.

[6] = biological target: T5, human PVRIG on FlpinCHO-PVRIG cells (human, UniProt Q6DKI7 41-326); test: FACS, FlpinCHO-PVRIG cells
T5 construct: whole, on cells
T5 sequence (looked up): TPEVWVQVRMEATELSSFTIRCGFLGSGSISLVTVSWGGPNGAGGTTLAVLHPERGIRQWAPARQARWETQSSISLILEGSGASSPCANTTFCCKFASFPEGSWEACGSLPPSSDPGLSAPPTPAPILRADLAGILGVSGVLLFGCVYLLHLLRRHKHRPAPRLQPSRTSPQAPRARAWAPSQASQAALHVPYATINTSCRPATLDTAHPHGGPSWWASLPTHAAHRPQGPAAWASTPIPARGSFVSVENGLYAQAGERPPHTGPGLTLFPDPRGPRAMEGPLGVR
Method: The Ham's F12 (Gibico, 21127-022) complete medium containing 10% FBS was then added to terminate the digestion and acquire cell suspension. After counting with a cell counter (Beckman Coulter, Vi-CELL), an appropriate amount of cell suspension was centrifuged at 350×g to remove the supernatant, washed twice with PBS, stained with Zombie violet (Biolegend, 423114) and incubated at room temperature for 20 minutes. After incubation, the cells were added with staining buffer (2% FBS+PBS) to stop staining, centrifuged at 350×g to remove the supernatant, washed twice and resuspended with staining buffer to a density of 2×10⁶ cells/mL. The cells were plated into a 96-well plate (50 μL of cell suspension per well) for further use. The antibodies were diluted from the highest concentration of 46 nM (two-fold concentration) with staining buffer by 3.3-fold serial dilution. The diluted antibodies were added to the well containing 50 μL of cell suspension. The plate was placed on a microplate shaker at 400 rpm for 1 minute to fully mix the antibodies and cells, and then incubated at 4° C. for 30 minutes. After the incubation, the cells were washed twice with staining buffer (200 μL per well) and centrifuged at 350×g for 5 minutes to discard the supernatant. The PE goat anti-human IgG Fc antibody (ebioscience, 12-4998-82) was diluted 250 times with staining buffer, added into the washed wells (100 μL per well), mixed well, and stained at 4° C. for 30 minutes. After staining, the cells were washed twice with staining buffer, finally resuspended with 200 μL staining buffer and analyzed by flow cytometry (BD, Canto II). The stronger the signal, the stronger the ability of the antibodies binds to PVRIG. An antibody binding curve was drawn with concentration of antibodies as the abscissa and the corresponding Mean Fluorescence Intensity (MFI) as the ordinate. The AUC value of the curve was calculated by using a Four Parameter Logistic Fit (GraphPadPrism9). The stronger the AUC value, the stronger the ability of the antibodies binds to FlpinCHO-PVRIG and FlpinCHO-cyno PVRIG. […] The binding activity of the antibodies was normalized to the positive control COM701-hIgG1 and SRF813-hIgG1.

[7] = biological target: T3, human PVRIG-his (AcroBiosystems, Cat …); test: SPR (BIAcore), antibody captured on Protein A chip, human PVRIG-His analyte
Method: Biacore was used to detect the specific binding between anti-PVRIG antibody and human PVRIG protein. Protein A chip was used in the BIAcore assay. The time required for the chip to capture the diluted antibody and saturate the binding antigen to reach Rₘₐₓ (Maximum binding capacity, 50 RU) was measured by manual run. […] The affinity of antibody for antigen was measured by multi-cycle kinetics. In each cycle, the antibodies were injected prior to the injection of gradient concentraions of PVRIG proteins allowing the occurrence of antibody-antigen association and dissociation After each cycle, the Protein A chip was regenerated by Glycine, pH 1.5 (to remove the proteins on the chip). The affinity of antibody for antigen was calculated by BIAcore T200 analysis software.
The methods refer to Example 10.

B1: PVRIG-A15 (VHH)
VHH: QVQLVESGGGLVQAGGSLRLSCVASGRTFSANTMAWFRQAPGKEREFVAYTRWTDDNTDYASYADFVKGRFTAFRDNTRNTMYLQMNRLRPEDTAVYYCAAATTRGTYYSAGDYNSWGQGTQVTVSS
notes: tested as VHH-hinge-CH2-CH3 (human IgG1-Fc); not shown: human IgG1 hinge-CH2-CH3
- IC50 (read off the curve) [1]: ~1 nM
- IC50 (read off the curve) [2]: ~2000 pM

B2: PVRIG-A35 (VHH)
VHH: EVQVVESGGGLVQSGGSLRLSCAASGRTRSMYVMGWFRQAPGKEREFVGRIKWSGDTTYTSYADFVKGRFTLYGNQARNTVYLQMNSLKPEDTAVYYCNGRSRFNVINAWGTGTLVTVAS
notes: as for B1
- IC50 (read off the curve) [1]: ~1 nM
- IC50 (read off the curve) [2]: ~1000 pM

B3: PVRIG-A60 (VHH)
VHH: QVQLVESGGGLVQSGGSLRLSCAASGRTRSMYVMGWFRQAPGKEREFVGRIKWSGDTTYTSYADFVKGRFTLYGNQARNTVYLQMNSLKPEDAAVYYCNLRRLDGVNYWGKGTLVTVSS
notes: as for B1
- IC50 (read off the curve) [1]: ~1 nM
- IC50 (read off the curve) [2]: ~1000 pM

B8: PVRIG-A30 (VHH)
VHH: QVQLVESGGGLVQPGGSLRLSCAASGRTDSMNVMGWFRRAPGKEREFVARIKWNGDTTYTAYADFLKGRFTLYGAVARNRVYLQMNSLQPEDTAVYYCAAGEVSGSSYSPDYGMHYWGKGTLVTVSS
notes: as for B1
- IC50 (read off the curve) [1]: ~1 nM
- IC50 (read off the curve) [2]: ~2000 pM

Next, values leading:

- % relative activity parental antibody/tested antibody [3]: 0.99%
- EC50 [3]: 7.41 nM
- % relative activity parental antibody/tested antibody [4]: 2.53%
- EC50 [4]: 1.27 nM
- % relative activity (AUC) parental antibody/test antibody [5]: 47.2%
- AUC [5]: 5.37
- AUC % to COM701-hIgG1 [6]: 15.9%
- AUC % to SRF813-hIgG1 [6]: 23.9%
- AUC % to parental Ab [6]: 12.8%
B4: PVRIG-A105-H3a (Fc fusion)
chain: EVQLVESGGGLVQPGGSLRLSCAASGRTFDRHTMTWFRQAPGKEREFVATASRIPGDTYYVDSVKGRFTISRDNAKNSVYLQMNSLRAEDTAVYYCAATSAYSSEVDSYEKGSWYDNWGQGTMVTVSS
notes: humanized variant of PVRIG-A105; also called A105.VH3a; not shown: constant part not restated for the humanized forms; parents are VHH-hinge-CH2-CH3 of human IgG1; detected by anti-human

- EC50 [3]: 0.0515 nM
- EC50 [4]: 0.0343 nM
- % relative activity (IC50) parental antibody/test antibody [5]: 128%
- IC50 [5]: 0.577 nM
- Kd [7]: 0.693 nM
- koff [7]: 0.00092 s⁻¹
- kon [7]: 1.33e+06 M⁻¹ s⁻¹
B5: PVRIG-A105-H2 (Fc fusion)
chain: B4 chain with V79L, S103C, S108C
notes: humanized variant of PVRIG-A105; also called A105 VH2; not shown: constant part not restated for the humanized forms; parents are VHH-hinge-CH2-CH3 of human IgG1; detected by anti-human

- EC50 [3]: 0.0678 nM
- EC50 [4]: 0.0377 nM
- % relative activity (IC50) parental antibody/test antibody [5]: 114%
- IC50 [5]: 0.647 nM
- Kd [7]: 0.818 nM
- koff [7]: 0.00091 s⁻¹
- kon [7]: 1.11e+06 M⁻¹ s⁻¹
B6: PVRIG-A105-H5 (Fc fusion)
chain: B4 chain with V79L, S103C, S108C, T122I, M123Q
notes: humanized variant of PVRIG-A105; also called A105.VH5; not shown: constant part not restated for the humanized forms; parents are VHH-hinge-CH2-CH3 of human IgG1; detected by anti-human

- IC50 (read off the curve) [1]: ~1 nM
- IC50 (read off the curve) [2]: ~1000 pM
B7: PVRIG-A113 (VHH)
VHH: QLQLVESGGGLVQSGGSLRLSCAASGRTRSMYVMGWFRQAPGKEREFVGRIKWSGDTTYTSYADFVKGRFTLYGNQARNTVYLQMNSLKPEDTAVYYCAALPSDYDYRAASYGVDYWGKGTLVTVSS
notes: as for B1

- IC50 (read off the curve) [1]: ~0.8 nM
- IC50 (read off the curve) [2]: ~1000 pM
B9: PVRIG-A75 (VHH)
VHH: QLQLVESGGGLVQSGGSLRLSCAASGRTRSMYVMGWFRQAPGKEREFVGRIKWSGDTTYTSYADFVKGRFTLYGNQARNTVYLQMNSLKPEDTAVYSCAASKFPVSGVPEHYDYWGQGTQVTVSS
notes: as for B1
